The source of these data is patent US7906282B2, “Synthetic nucleic acid molecule compositions and methods of preparation” (Promega Corporation, priority 2000, dated 2011).

Substrate in series [1]: O=C(O)[C@H]1CSC(c2nc3ccc(O)cc3s2)=N1
As to the kind of experiment: Km determination with partially purified enzyme (Table 3), GR. Conditions: other: partially purified enzyme. The series is classed as biochemical, Pyrophorus plagiophthalamus. The source says: (§1) The parent click beetle luciferase YG#81-6G1 (“YG”), and the synthetic click beetle luciferase genes GRver5.1 (“GR”), RDver5.2 (“RD”), and RD156-1H9 were cloned into the four pGL3 reporter vectors (Promega Corp.): • pGL3-Basic=no promoter, no enhancer • pGL3-Control=SV40 promoter, SV40 enhancer • pGL3-Enhancer=SV40 enhancer (3′ to luciferase coding sequences) • pGL3-Promoter=SV40 promoter. The primers employed in the assembly of GR and RD synthetic genes facilitated the cloning of those genes into pRAM vectors. To introduce the genes into pGL3 vectors (Promega Corp., Madison, Wis.) for analysis in mammalian cells, each gene in a pRAM vector (pRAM RDver5.1, pRAM GRver5.1, and pRAM RD156-1H9) was amplified to introduce an Nco I site at the 5′ end and an Xba I site at the 3′ end of the gene. The primers for pRAM RDver5.1 and pRAM GRver5.1 were: […]
(§2) Partially purified enzymes expressed from the synthetic genes and the parent gene were employed to determine Km for luciferin and ATP (see Table 3).

Substrate in series [2]: Nc1ncnc2c1ncn2[C@@H]1O[C@H](COP(=O)(O)OP(=O)(O)OP(=O)(O)O)[C@@H](O)[C@H]1O
Described as above. Type of series: biochemical, Pyrophorus plagiophthalamus. Conditions: other: partially purified enzyme.
Excerpt: as §1, §2

B1: synthetic green click beetle luciferase GR (GRver5.1; YG#81-6G01 variant A224V), SEQ ID NO: 31 (Pyrophorus plagiophthalamus; … (protein)
chain: MMKREKNVIYGPEPLHPLEDLTAGEMLFRALRKHSHLPQALVDVVGDESLSYKEFFEATVLLAQSLHNCGYKMNDVVSICAENNTRFFIPVIAAWYIGMIVAPVNESYIPDELCKVMGISKPQIVFTTKNILNKVLEVQSRTNFIKRIIILDTVENIHGCESLPNFISRYSDGNIANFKPLHFDPVEQVAAILCSSGTTGLPKGVMQTHQNICVRLIHALDPRVGTQLIPGVTVLVYLPFFHAFGFSITLGYFMVGLRVIMFRRFDQEAFLKAIQDYEVRSVINVPSVILFLSKSPLVDKYDLSSLRELCCGAAPLAKEVAEVAAKRLNLPGIRCGFGLTESTSANIHSLRDEFKSGSLGRVTPLMAAKIADRETGKALGPNQVGELCIKGPMVSKGYVNNVEATKEAIDDDGWLHSGDFGYYDEDEHFYVVDRYKELIKYKGSQVAPAELEEILLKNPCIRDVAVVGIPDLEAGELPSAFVVKQPGKEITAKEVYDYLAERVSHTKYLRGGVRFVDSIPRNVTGKITRKELLKQLLEKAGG
notes: C-terminal tail changed
Regarding B1, the results for the Km in series [1] and in series [2] were 1.3 μM μM and 25 μM μM, respectively.
